The text below walks through data of the domain aggregation screens of Martell et al. (2025).

This series is described as follows: soluble fraction after stress (log2 fold change); higher = more stays soluble; pooled small domains, quantitative proteomics. Conditions: stress: 50 degC. The essentials: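 Pooled custom libraries of small protein domains were each held under stress at 50°C. The read-out, high-throughput quantitative proteomics, tracked how much of each protein stayed soluble. This is reported as a base-two log fold change used to indicate aggregation propensity. Higher values mean more protein remains in solution.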

As for “HMIQKTHPALEIVKEYFSSQAASEFEAERFFNYYTSNGWLIGGKTKMKDWQAAARNWILNTAK”, the “soluble fraction (log2)” value was -0.199.
For “HMRPTAWDQISDWLDRHGSIANADVVRIAGLDTLKASKLLTTWREQGLLEPLPGRGKRNMAYVRAI”, the “soluble fraction (log2)” value was -0.554.
For the sequence “HMDKQGGWLTMAEAAEKLGVTHHVIRRLIKEKILPAEQVMRHAPHQIRIVDLESDAVAEALRHR”, the “soluble fraction (log2)” value is -0.215.
As for “HMQFEIGDTVRVHVNIREGERERVQMFEGTVIAKRGSGVSETFTVRRVSYGVGVERVFPVNSPNV”, the “soluble fraction (log2)” value came to 0.105.
For “HMSSWEVLAEPIQTVMRRYGVPGAYEKLKEVTRGKSLTAEALHALIRSLDIPQADKERLLALTPAAWA” the value was -0.703; for “HMRQDEKTLLYWIAGHLKREGRQITERSARHLVEQVGTDMENLSREMEKLIAYTMGRTEITGQDIDDI”, -1.68.
“HMETVPMIDLRGMTQEQAEKAIVGLGLTVGTVDHSSSDMPAGQVWFQSVEPKDEVAPGTKVNIIISTGS”: the “soluble fraction (log2)” value is -0.000277.
In the case of “HMDDSVTFSEFVRMVDSGQVESVRITGNEVTGSDSTGNTFRTFVPPQYEGLVNRLVERDVAVTAEE” it was 0.0594.
In the case of “HMSGVSESIEKKIQYLLLEKPLPLHDLIEAIEIGKEEDRLKVLRSLMDSDTVKIEDDLYHWNA” it was -0.0841; in that of “HMYDDEELDVLAHRPIESYTDAELAMLREVAETLLETDYEGWLKSLSMRGILLPPEILQLVT”, -0.049; in that of “HMITVEAPMPGKVLSVNVKAGDKVEAGDVLLILEAMKMQNEIMAPEDGTVSDVRVSAGDTVATGDVMVV”, 0.0409.
Consider “HMAEEPLRIWTDLQGRSIEASFIKFSGNNIVIKMKSGRDYEVARSLFSPGDQKYLSDLKKSTPE”, for which the “soluble fraction (log2)” value is -0.701.
In the case of “HMHLEKGEVVVPDLKGLTMRQVGELLGKLNLRYSFSGTGLAVKQFPESGQIVNQGDIIEVIF”, the “soluble fraction (log2)” value was -0.138.
Take “HMNDEFYAVVRESYAGYALVKPLDEDVGYDILSVSVKNLKVGDIIRLKVKNIKEIYPPEAEVLEVEVLQ”: the “soluble fraction (log2)” value came out at 0.00135.
Take “HMLKLEEIQPNATVRGILPDALITVVNVKWFGSEALELTYKDTSGRVANQLLFRDDQPRLEIVE”: the “soluble fraction (log2)” value was -0.538.
Consider “HMDASSAVQFGSLLRDARRRQGLSQAELGGDKYSGSYISHLESGRRVATPEVIEFLSRRLGVSPLEWGVS”, for which the “soluble fraction (log2)” value is -0.0679.
For “HMDTAEQNWRLRGKLVTLGLNARQIRMALASHAPRYLEDNIAVVERDLAAGKVRNLPAYLLAALREDYRP” the value was -1.67.
For the sequence “HMFNIIARQEIDEILYEYKIENSEDYKNRDPEELAEIYENIKTVQENHDLSDDDVEELLKSIFSDY”, the “soluble fraction (log2)” value was -1.02.
Turning to “HMAPVLTATVNTTSGKLNMRAAASATSAKLTSIPRGATVTVLEKGTTWSRISYGGYTGYVMTQYLKFD”, the “soluble fraction (log2)” value was -0.167.
For “HMKRIHLSDEEKTDLESLHYSSNDGKQRDRIKAVLLRSEGWTVPMISQALRIHETTVTRYLNDYREGKLKN” the value was 0.00871.
In the case of “HMLETADDAKRFLGAIISEKKAENLLRVYPDIIERIVAGKPVDLSLVKGIKQKTFDKLRQKVISHYSMY” it was 0.119.
In the case of “HMETYTVSSKDGYANVRNEATVNSDLIAELKNGTLVTKFKEKGEWYYIEFEREDGTPFDYGYIHKSQLK”, the “soluble fraction (log2)” value came out at 0.181.
For “HMQERKYTVSFNTNGGSTINDQKITSGNVIISPGAPKRSGYTFVGWYYHGQPFDLNTKINQDYVLVAKWIK”, the “soluble fraction (log2)” value is -1.16.
In the case of “HMLLTHPKRVFTYELIMELVWNEDYTFYSKKAVSNHMSNLRKKLKVTPDALDYIKNIVGVGYKFEA” it was -0.759.
For “HMEISTENESFSNGLLEHPHYTRPPVWEDLKIPAVLMSGHHGKVAEWRKQQSEALTQERRPDLWEAFG”, the “soluble fraction (log2)” value is -0.0409.
With “HMITPNQAAVTLKVSTSTLRRWSSDFEPFLSPRKGVKRLYTIEDIATLKRIQGLYKQGMNTAQVQA”, the “soluble fraction (log2)” value is -2.1.
For “HMQKNFYQILGVDSKASPATINAAYERAKSRVIQSGLEDPDTMALLRDAWETLADPGDRAAYDESLAT”, the “soluble fraction (log2)” value is 0.0751.
“HMHMSKKLADSIISLRRKHGFSQEQLAEKIGVTRQAISNWERGTATPDVETLNLIAKLFDMDLLAIINGE”: the “soluble fraction (log2)” value is 0.0766.
For “HMNNSSIGERLKYQRKIKGYSQEELADRTNVTVRTIQRIEKEEVSPHLNTIKLLAIALDIEVDELVAL” the value was -1.25; for “HMRVVPEILERAVAVFEALGVDRLPSSTLADRLGYDSPEALADVLRPLGVRPKKYRDGKSTARGYLAADLG”, -0.473; for “HMSDIHARIAAALAALTSPEKIHDLVVDDDGKVSFTFHLTREDPATLVRDARKAVQAVDGVRDVKVNVVDP”, 0.172.
“HMAIRPDAAVSSHAVKQRLQSLIRAEDPAAPLSDEALRLALSALGIGVSRRAVAKYRAEMGIPSSSQRKK”: the “soluble fraction (log2)” value was -0.0632.
For the sequence “HMLSRKEVFTVSQKDIEKNPIGAADKFFDGHVGIHKLLVVDEEDRLRGLFTLSDIERINDEQ”, the “soluble fraction (log2)” value was 0.0269.
In the case of “HMAAKADAVKKAIAAIGKVDASEDSKAKVEAARKAYAALTEDQKKLVEASQLKLLTEAEAAYQQAVEESKK” it was 0.0525.
“HMGRNSTPKEPLKKFEVSPITEKEVRILDGRFGPYITDGATNVTVPKTITIEEITFERALDMLAEKAAKGP”: the “soluble fraction (log2)” value worked out at 0.0252.
Regarding “HMKEQLEAYVNRLFADAALTIRNAEVRQEILQHALDRYDDLIASGKTEQEAYDETVSGIGDVSGLYEHK”, the “soluble fraction (log2)” value is -0.195.
As for “HMDIDLNTIKKITLDDIHAFLSYLTTTYHSKAATRARKASSIRVFFNYLSAKANLIEVNPAQNLETPKLD”, the “soluble fraction (log2)” value came out at 0.0581.
Take “HMDGYLQLASKKNELITQLKTPPKPKRLFKDFEDRVYLITEYKVFVVSIFQNEFRLRPVNKDDFYRYTT”: the “soluble fraction (log2)” value was 0.207.
In the case of “HMEEKNNIIVSYIEDKISELEKASMYVPNENKEKLIMAFKNRNEDIDVIKTRIDTIFNNSVAAYKENME”, the “soluble fraction (log2)” value worked out at 0.21.
Regarding “HMKQNSDDGEIRKIIIEILDNNLDNVNKYKSGRTNVLDFFVGQVMKQTRGQANPELTRSILTEELSN”, the “soluble fraction (log2)” value amounted to 0.0594.
On to “HMLPDLQESIDELLNIVDQRLNTSFEELVSGVNTTEKAIAFFLALLETIKWGFIKAEQTNNENKINIEKNY”, for which the “soluble fraction (log2)” value is 0.0699.
In the case of “HMVMSVGENIAYFRKKLGLTQEMLSERIGVTAQAVSKWENGVTNPDISLLPRISEALGIGIGDLFD”, the “soluble fraction (log2)” value is -0.299.
In the case of “HMDTFEITVEESDIDKRIDLFLAGNLESFSRSYIQDLIKKGKATISGKPVKANYRLREGDSVVLSIPKPK” it was -0.227; in that of “HMLSYNINEESKSSIMNVNVLKNNFASIDVEKLQNIIFTTFKKYNYYLNDFSSMNLLLHLLIIVDREL”, 0.337; in that of “HMSHYEYKVGDRVNLLDYDDFGILYKEKDNFYNVVVYYNGEFVEVNVKRITLEVAAKELYPEGYDLSTLFV”, -4.14.
With “HMWNTADDIKEAIWKLIQSEDPKKPYSDLKISQLLLEKEMKISRRTVAKYRKEMGILGTYSRK”, the “soluble fraction (log2)” value was -0.347.
As for “HMKTLSKEDIGFLSDEAVGEMRKAVANGEMLELRALIDQVGEKNPIVAEKLLTLVKQYDYENLNRVLE”, the “soluble fraction (log2)” value worked out at 0.0931.
As for “HMEDEFNQIASQKNVPSFLGKGKKEVINIAKKNKIKINLSGNGYVKRQIPAPGEVISHLDEVTIFLEPG”, the “soluble fraction (log2)” value turned out to be 0.396.
In the case of “HMHKLTSRQEEILQFIKDYLSEIGYPPTRSEIAQKMGFRSTNAAEEHLRALARKGAIEILPGPSRGLRLP” it was -0.455.
On to “HMRAPETEITYTEFKTALRAGQIETATVGIEQISGKLTDGDLYRTVRVDDPDLLKDLEANHVNAAGRV”, for which the “soluble fraction (log2)” value amounted to 0.104.
As to “HMRDFLMDSTKNKLSKDQVQLSRIFLWFGNDFGSKAERLEFISRYSGMDFNQPKIDYLTYDWSLNQ”, the “soluble fraction (log2)” value is 0.278.
With “HMEQQVDYTQFIQDVRQGQIREVDVDRNGVINGIKRSGENFVTVIPGGYDRDLINDLVKQGVNATGEL”, the “soluble fraction (log2)” value was 0.107.
Regarding “HMSNPPLPFLAKTKVSWTGEQDGDLGFLENEVVKVFHVVDELWWQGSLSRNGAEGIFPRDFVEVISAP”, the “soluble fraction (log2)” value was -1.8.
For “HMIANNFDEFVEKVSEAERKALNMPAGQEMTQKLLEMKLAANPNLTPEEWQRTKSEFMTFLFAVFVRE” the value was -0.842; for “HMSLPALSAEEQKIVDALHGTPKGVDDIIAETGISSGALLRSLTMLELKKVIVRLPGNRIAPK”, -0.128; for “HMDGEAQTYVEYGKWFPADLPLEAVRQLADGVPVTKELVAALNPRRSEWEEIKAGLDKIGYPNELL”, 0.0308.
In the case of “HMNKIENLSQTILNILRKDHSQAFNYKQIAAKLQLDDPSSRNQIVKKLKDLQGKGTIQEIERGKYILTP”, the “soluble fraction (log2)” value amounted to 0.358.
Turning to “HMKFNRPMSEILQEWENKLGTTSDAELAGLIGVVTMTINRWRKNETKPDLSALNRYDRIVNLVVNNIKQL”, the “soluble fraction (log2)” value was -0.432.
With “HMADVPSTIFEAYRILGLNPEAPPVAVKKVVDALRMSWHPDHARSEPDRRHREERIKQINAAWDLLKGV”, the “soluble fraction (log2)” value worked out at 0.148.
On to “HMLHIKKGDTVIVNAGESKGQQGKVLEVLVGKERAIVEGVNMVSKHTKPNAKNPQGGIVKKEAPIHISNLQ”, for which the “soluble fraction (log2)” value was determined as 0.179.
In the case of “HMKVSAEEQNILDALQAAGGYLPFHDKSNPEEIYEAFGISKKTFKMIIGSLYKQQKINLTQTGIQLII” it was -0.0574.
Take “HMKGSYTVKSGDNLWSIARKFYGGSGSTWTKIYSANKSTIESTARRYGRSSSDNGHWIYPGTVLVIP”: the “soluble fraction (log2)” value turned out to be 0.0541.
For “HMKPVTVINFVGMTEEKAMTEAEKLGLVVGASSSEYSDEPAGTVIRQSISVSTEAKTGDNIYFTVSKGPE”, the “soluble fraction (log2)” value was determined as 0.163.
For the sequence “HMAWIGEHTVTSEDTLSHIALKFYGHATPPYYKLIYEANKAIIGDNMNIIVPGQVLRIPALPEEL”, the “soluble fraction (log2)” value is -0.345.
Take “HMDDSPTARALRTLDLIHNRPGITAAELADRLGVTERAVRRYVLTLRDAGVPVLGTPGRYGGYQVGK”: the “soluble fraction (log2)” value was -0.426.
On to “HMHAPKIIVLTINPDKIRDVIGPGGKMIKSIVAATGVKMDVEDDGKIHISSSDQKAADEAIRMINEITAEA”, for which the “soluble fraction (log2)” value turned out to be 0.0184.
On to “HMAYQQITIKANVVNVRQGPGLSYDVMSQANKGETMNVISQKNNWYQVRLSGDKIGWVASWLVDNT”, for which the “soluble fraction (log2)” value was -1.
Turning to “HMTAFAGLTPRERDLLELIAQGRDNAQIAATLGVSDKTVRNHITHIFAKLEVETRAQAIVLARNAGFGRA”, the “soluble fraction (log2)” value is -0.356.
